This note sets out measurements from the DeepSol protein solubility set.

The data set in a line: soluble on expression in E. coli; label from the status in PepcDB or PDB records.
Turning to “MGHHHHHHSHMSEDNRPLTGLAAAIAGAKLRKVSRMEDTSFPSGGNAIGVNSASSKTDTGRGNGPLPLGGSGLMEEMSALLARRRRIAEKGSTIETEQKEDKGEDSEPVTSKASSTSTPEPTRKPWERTNTMNGSKSPVISRPKSTPLSQPSANGVQTEGLDYDRLKQDILDEMRKELTKLKEELIDAIRQELSKSNTA”, the “soluble on expression in E. coli” value is “not soluble”. Take “MGHHHHHHSHMSHTQQQTASSTETSTVTVPPSREQNLVLHLSPNPAQPSTSERRHVVWATETVDNEGMGKKKSKCCCIYKKPKNWQDSSSDSDSDCETGHCRGHVEHKKNEEPKSSN”: the “soluble on expression in E. coli” value is given as “soluble”. Regarding “MGHHHHHHSHMSNLTPESSPELAKKSWFGNFISLEKEEQIFVVIKDKPLSSIKADIVHAFLSIPSLSHSVISQTSFRAEYKATGGPAVFQKPVKFQVDITYTEGGEAQKENGIYSVTFTLLSGPSRRFKRVVETIQAQLLSTHDPLRPSTCQTPLTVWK”, the “soluble on expression in E. coli” value is given as “not soluble”. As for “MGHHHHHHSHMSRPGHGGLMPVNGLGFPPQNVARVVVWEWLNEHSRWRPYTATVCHHIENVLKEDARGSVVLGQVDAQLVPYIIDLQSMHQFRQDTGTMRPVRRNFYDPSSAPGKGIVWEWENDGGAWTAYDMDICITIQNAYEKQHPWLDLSSLGFCYLIYFNSMSQMNRQTRRRRRLRRRLDLAYPLTVGSIPKSQSWPVGASSGQPCSCQQCLLVNSTRAASNAILASQRRKAPPAPPL”, the “soluble on expression in E. coli” value is “not soluble”. On to “MGHHHHHHSHMSYKPNLAAHMPAAALNAAGSVHSPSTSMATSSQYRQLLSDYGPPSLGYTQGTGNSQVPQSKYAELLAIIEELGKEIRPTYAGSKSAMERLKRGIIHARGLVRECLAETERNARS”, for which the “soluble on expression in E. coli” value is on record as “soluble”. Turning to “MGHHHHHHSHMTDPLAPEGDNRVWYMDGYHNNRFVREYKSMVDFMNTDNFTSHRLPHPWSGTGQVVYNGSIYFNKFQSHIIIRFDLKTETILKTRSLDYAGYNNMYHYAWGGHSDIDLMVDESGLWAVYATNQNAGNIVVSRLDPVSLQTLQTWNTSYPKRSAGEAFIICGTLYVTNGYSGGTKVHYAYQTNASTYEYIDIPFQNKYSHISMLDYNPKDRALYAWNNGHQILYNVTLFHVIRSDEL”, the “soluble on expression in E. coli” value is recorded as “not soluble”.

As for “MGHHHHHHSHMTKLPPIEQLLPHDKPMILVDRAMDIQQDTIHCQVDIAEHNPFFDSASQTVPAYVGIEFMAQSVAAWSGYHALMKEQAPPIGFLLGSRRYTSECDAFSRGQMLDVYAEKVMEDNGMAVFSARIELQGTVVATCQLNVYVPSEEKLQEMKIRSQQ”, the “soluble on expression in E. coli” value is on record as “not soluble”.

As for “MGHHHHHHSHMVAWKRQLILFGGFHESTRDYIYYNDVYAFNLDTFTWSKLSPSGTGPTPRSGCQMSVTPQGGIVVYGGYSKQRVKKDVDKGTRHSDMFLLKPEDGREDKWVWTRMNPSGVKPTPRSGFSVAMAPNHQTLFFGGVCDEEEEESLSGEFFNDLYFYDATRNRWFEGQLKKLRSGWRRRTRKRTVRRLRAPRVGSTTKTAERRAVRRTESPCQGRLASAVPTSAQDPAVLSEALGASVRPDAQERAEGGWPRPGCELSPMV”, the “soluble on expression in E. coli” value is reported as “not soluble”.

Consider “MGHHHHHHSHMVDIDLPEPPKPTPPDQETEEEQRFRALFEQVAGEDMEVTAEELEYVLNAVLQKKKDIKFKKLSLISCKNIISLMDTSGNGKLEFDEFKVFWDKLKQWINLFLRFDADKSGTMSTYELRTALKAAGFQLSSHLLQLIVLRYADEELQLDFDDFLNCLVRLENASRVFQALSTKNKEFIHLNINEFIHLTMNI”, for which the “soluble on expression in E. coli” value is “soluble”. Take “MGHHHHHHSHMVTSITATANQMPANPPKTVFEFSTEINRTIEKDVMQAVVYSRKTGKQLPDLKKSVSLHLNKVIDNAKKQSDIELEANGVRNFVNYDNNNKPDGWVAEGRVYLKSKNFEALAKVLEQLDSEVAISDIYFSVSPEKAKTLENEMILDVLKQFKHKAEVVQAGLNAKNYVLTDVKLDTPNGNLDQFEVRSFAMMARSVRPASAKEELSLEPGKATLSARASGKVQFE”: the “soluble on expression in E. coli” value is listed as “soluble”. “MGHHHHHHSHMYAFTLHPNAQHRRTRIGTSVDLSCLLCFRIGGFYALSPYPGLRLISLNMNFCSRENFWLLINSTDPAGQLQWLVGELQAAEDRGDKVRASSGNTVVLGDKQAPVELEHLWAQKFYFPGIPNKCSLGIQLMVTVESLHSVPLSLARAAWTPGCPDYHP”: the “soluble on expression in E. coli” value is “not soluble”. Regarding “MGHHHHHHSHQHLEVRDEVAEKCQKLFLDFLEEFQSSDGEIKYLQLAEELIRPERNTLVVSFVDLEQFNQQLSTTIQEEFYRVYPYLCRALKTFVKDRKEIPLAKDFYVAFQDLPTRHKIRELTSSRIGLLTRISGQVVRTHPVHPELVSGTFLCLDCQTVIRDVEQQFKYTQPNICRNPVCANRRRFLLDTNKSRFVDFQKVRIQETQAELPRGSIPRSLEVILRAEAVESAQAGDKCDFTGTLIVVPDVSKLSTPGARAETNSRVSGVDGYETEGIRGL”, the “soluble on expression in E. coli” value is recorded as “not soluble”. In the case of “MGHHHHHHSHRSQPVHILAVRRLQEEDQQFRTSSLPAIPNPFPELCGPGSPPVLTPGSLPPSQAAAKQDVKVFSEDGTSKVVEILADMTARDLCQLLVYKSHCVDDNSWTLVEHHPHLGLERCLEDHELVVQVESTMASESKFLFRKNYAKYEFF”, the “soluble on expression in E. coli” value is given as “not soluble”.

As to “MGHHHHHHSNKIERIIARLQRRIAEGQPEEQYEAAQETRLVAARYSKQGNWAAAVDILASVSQTLLRSGQGGSGGDLAVLLVDTFRQAGQRVDGASRGKLLGCLRLFQPGEPVRKRFVKEMIDWSKKFGDYPAGDPELHHVVGTLYVEEGEFEAAEKHLVLGTKESPEVLARMEYEWYKQDESHTAPLYCARAVLPYLLVANVRAANTAYRIFTSALVEDNKGLTVQNIGSQSAELRIFPSLPLLNFISMLLLSVQKGSPDLFRQLKSKYEANLNELNGIWDTALELIAEMYFGIQRPRQSNPLLDMMGSLFGGGGGAPSKAALRRIDTPAAEGLD”, the “soluble on expression in E. coli” value is recorded as “soluble”. Consider “MGIFDFLSGQFIDVIHWTDDTRDTMVWRFEREGHEIKYGAKLTVREGQSAVFVHEGQLADVFTPGLYMLETNNMPILTTLNHWDHGFRSPFKSEIYFVNTTRFNNLKWGTKNPIMLRDPEFGPTRIRAFGTYSVRVTDPARFLSEIVGTDGEFTMDEISFQIRNIIVQEFSRVIAASGIPVLDMAANTADLGKLIAAQVALPLTEYGLEMPEFYIENISLPPAVEAALDKRTSMGLAGDLGKFTQYSAAEAMTAAATNPAGGGMAAGLGAGMGMAMAQQMAQPGPWGAAPASRHAAPPPPPVEHVWHVAVDGQTSGPFSKAKMGRMAAEGEITRDTYVWTPGQDGWKRAEDVRELAQLFTILPPPPPPPGALEHHHHHH”, for which the “soluble on expression in E. coli” value is given as “soluble”. As for “MGIKGLSQVIADNAPSAIKVNEMKAFFGRTVAIDASMCLYQFLIAVRQDGSQLQSEDGETTSHLMGMLNRTVRMFENGVKPVYVFDGKPPDMKGGELEKRSERRAEAEKALTEAKEKGDVKEAEKFERRLVKVTKQQNDEAKRLLGLMGIPVVEAPCEAEAQCAHLVKAGKVFGTVTEDMDALTFGSTVLLRHFLAPVAKKIPIKEFNLSLALEEMKLSVEEFIDLCILLGCDYCGTIRGVGPKKAVELIRQHKNIETILENIDQNKYPPPEDWPYKRARELFLNPEVTKPEEVELTWKEADVEGVIQFLCGEKNFNEERIRNALAKLKTSRKSGTQGRIDSFFGNSTKVTCVTAATKRKAEEAEKAKKGAKKGGPPKKRAK”, the “soluble on expression in E. coli” value is “not soluble”.

In the case of “MGISEIIRSHRKKENLTQEQVANYLNISTPAVNKWENGITYPDITLLAPLARILKIDVNTLLAFNEELTEKEVNKLGRSVGEIVEKEGYQKAFEKGSDLIKQYSSCDELILRISSILRLFLVTAKVEKKDIYEDKIIAWAEIVAASRNEKTADMAKIFLSAVYRDKKEYKKAKEILDKVPDMELGSDKKIQQLLLLESSGEFDKAYGACEEVLLYNAQESLGAMVLIIRMLLKENKFSEAEEYTQRAKKLVEVFDLGEYSKYTLELSLIKEKRDEEKAVELIRNMIDNADSMNNFMRSKLYKHRKIEVTNSLDKDRYKKIVRMSIIKDKALDFVKDDPRVKSLLK”, the “soluble on expression in E. coli” value is on record as “not soluble”.

Regarding “MGITDGVVVDLGGGTTGISILEKGKVIFVADEPTGGTHMTLVLAGSYGIDFETAEDIKTDKKKEKEVFVQITPVLQKMAAIVKKYIKDYKVKDVFLVGGACSFDGSESIFERELGLNIYKPYMPVLEHHHHHH”, the “soluble on expression in E. coli” value is reported as “not soluble”. In the case of “MGKDLRGKELGVGLYQRKDKRYSARYTNQYGKRMEFYDFKLSVVKKWLNDARYEDEHGLSGTGEKVTVTEWFEKWIKLYKEGVVKDNTVKNYKSRFENNIKPAIGNLQLNKVKKIQLQTILNNMYEEGYAFGTMVLAQITIHALFDGAVQSEILAKNPANGLKCKQRDVKDSRVLTREEQKVFLEYSRGTMYYNAYALLLQTGLRPGEVGGLKWEDIDFDKRELHITRTLLQDKAKGGFYFGSPKNKKSIRTVPLTDTAIQLLKDQRICNFKLRQRSDNWQKNKEFDNLIFCTINGNPVGQSTFRMMMLRVITRINNDRRAEAEINNTTYVEFEPAHPHTLRHTFATRCIEDGMKPNVLQKILGHASITVTMDLYVHETHEEKHKEIRKLGNVEEIGVKLA”, the “soluble on expression in E. coli” value is “not soluble”. For “MGKENLYVVLPSYNEEANIGKLINEWNVQFKDLEARGIKLEIIIVNDGSTDNTLAVAEAFSKHNDNVVVIDHGVNKGLGEGLNTGINYVLSQKQKGYMCLMDGDMTHEPKYIFSMLDKLQEEKLDCVIASRYRRGAKVEGLSLFRKFLSFGARVLYTIRLGIPNVRDYTCGYRLYKTSVLEKLHKVYGKRIVKETGFACMMELIVKVSKENFKIGEVPFVLKYQLKGGESKMKVGKTIKRSLLLLRVYK”, the “soluble on expression in E. coli” value was “soluble”. For “MGKKQHQKDKLYLTTSEWKSIGGHKDDTGTRLQRAQFKRLPINHCSLSLLPFEDPVCARSGEIFDLTAIVPYLKKHGKNPCTGKPLVAKDLIHLKFDKGEDGKFRCPVTFRTFTDHSHILAIATSGNVYSHEAVQELNLKRNHLKDLLTDVPFTRADIIDLQDPNHLEKFNMEQFLHVKLDLKTSEEIKKEKDAMKDPKFYIRRMNNACKSVLDQLDKEYVPKKSSTETDETADEINAAHYSQGKVAAGFTSTVMAPVTSNKAAVLDNDTVRYSRVKKNAFVRLVTNFGPLNLELFAPKVPKACENFITHCSNGYYNNTKFHRLIKNFMLQGGDPTGTGHGGESIWDKPFSDEFISGFSHDARGVLSMANKGSNTNGSQFFITFRPCKYLDRKHTIFGRLVGGQDTLTTIEKLETEEGTDVPMVSVVIMRAEVFVDPFEEAEKEVQAERAEILKKTSKDAASLANKKAKETATKPEAVGTGVGKYMKSAAAVNKRQGKMEDVPLEAAKKTKFARAGLGDFSKW”, the “soluble on expression in E. coli” value is “not soluble”. Turning to “MGLFTTRQLLGYTEQKVKFRALFLELFFRRTVNFHTEEVMLDKITGKTPVAAYVSPVVEGKVLRHRGGETRVLRPGYVKPKHEFNYQQAVERLPGEDPAQLNGPAYRRLRIITDNLKQEEHAIVQVEEMQAVNAVLYGKYTMEGEQFETVEVDFGRSVGNNITQAGGTEWSAQDRDTFDPTHDLDAYCDFASGTINIAIMDGKVWRLLNGFKLFREKLDTRRGSNSQLETAVKDLGAVVSFKGYYGDLAIVVAKTSYVAEDGTEKRYLPDGTLVLGNTAAEGIRCYGAIQDAQALSEGVVASSRYPKHWLTVGDPAREFTMTQSAPLMVLPDPDEFVVVQVK”, the “soluble on expression in E. coli” value was “not soluble”. Turning to “MGLKLDLTWFDKSTEDFKGEEYSKDFGDDGSVMESLGVPFKDNVNNGCFDVIAEWVPLLQPYFNHQIDISDNEYFVSFDYRDGDW”, the “soluble on expression in E. coli” value is “soluble”. In the case of “MGLLLYRELVHKLKTKYKKIAGKGENQKDKTLPWHLETDQLTNRHPNHKVRIPYIDEVFDMLAKMTAKNQLTLPKSVTTAVGAGEYFEIEVRNGQIVLTPVRIQRADAVRAKLAELDLGERDIMDAVTWARQPVKGSATE”, the “soluble on expression in E. coli” value is “not soluble”.
